Consider 28 sequences from a protein production outcome set (Wang et al. 2014).

The nature of the data set: label from the status in PepcDB records.
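Note: failed if final PepcDB status was selected cloned or expressed and not failed if soluble or beyond.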

For “MGGAGLDNAQNVRNQTQNQTKPIHVSDRNEAFNRHNENEQFGYVRYQKEQFDGEQQKTPVMNREETAHMISSLTVQLPHIQDAATLVTDREALVVYKTDSKNRELTADQVKKTAASVIPRYYHVYISDNPNHMQSVENYSNLGSGSRDIREIMSGTIQEMKTSPQGSPVSENENANGETRQDMKIDRNDKNARLEHHHHHH”, the protein production entry is “not failed”.

Regarding “MGGGNAQKSAMARAKNLEKAKAAGKGSQLEANKKAMSIQCKVCMQTFICTTSEVKCREHAEAKHPKADVVACFPHLKK”, the protein production entry is “not failed”. For “MGGNETRELPIINLSDKNLKQNTELWSFTRDSVREAMEHHGWFVAEYNNFPTGLHQSILEAAKELLDLPVEIKLKNENHKAGHGYITMMSDGQPVHEGLGIDQVNDVQQCRGFSRLMWPDDHDDNDRFCETVHAYAKMQAELEQLVIRMLFESYNVEKYTEKYIGGTRYLLRLLKYRRLPNGEPNRKFISHTDKSFISILHQNHITGLMLKSEKEDVWYHFTPSPTRFVVIAGDAIMAWSNDRIKACYHKVEMESVEMRYSLGFFSFQEGMISTPEEMVDKDHPLAYNPFHHDGLLEYYETLEVHLKAHRTMTKAYCGIP”, the protein production entry is “failed”. For the sequence “MGGRVTDVYNAFVPLVHISNNSTSDTNKAKENIISKLLDILSGIFVPIIHAIIGAGLLKGILIFLNFYHLVSPATSTYKLLSVFSDSAFYFMPILLAYSSAKKFKTNKYVAVAIAGILVHPELISMMSKSASVKFFGIPFTSATYSTSVLPIILGVWVMSYIERGLNKIIPKILRTVLVPLFTLLITAPIILGILGPIGTIVGDAIGQGTVQLYLHYGVIAGILVGAAYPFLVIMGMHVGFTPVMVQSLSKYGVDYMMGIFVASNSAEAGATTAVWLKTKNKQLKEIAGSSALNAIIGVTEPALFGVTSKLKKPLIAVSIGGAVGGGIAGLFKVAAQGAGTGPIAGIPLFFGKTFIWFIISCLVSYVVSFILAYVIGFEDIPNPEDLSQKNSMDNHEKIVTTVVANQSVADPVNGNVIPLSEVKDNVFSSKMMGDGAAIVPNDNKIYAPFDGVVELVFETKHAIGLKSYDGCELLIHVGLDTVELKGKHFISHVIKDQKVKKGDLLLEFDREAISKEGYDTTIPVIVTNSKDFENITKTKKKQLQHGEELLKLTAKNKEN”, the protein production entry is “failed”. For “MGHGIEVLPDLFCYTIQIVNICFVGNPESNDFVLVDAGMPKCANEIISVAEDRFGTNSRPKAIILTHGHFDHVGGIIELIKYWDVPVYAHQMEIPFLTGQQSYPEPDSTVEGGMIAKMSPLFPNEPIDLGNSIKVLPTDGTVPHMPDFRWIHTPGHTPGHISLFREKDRTLIAGDAFVTVKQEYLYKVITQEQEISGPPRYLTTDWKAAKESVITLEKLKPLSAVTGHGIPMSGELLSTSLKTLAQEFDKIAVPDYGKYVDKKLEHHHHHH” the value was “failed”; for “MGHHHHHHSHAAAMANNLQKGSAGPMRLYVGSLHFNITEDMLRGIFEPFGRIESIQLMMDSETGRSKGYGFITFSDSECAKKALEQLNGFELAGRPMKVGHVTERTD”, “not failed”. For “MGHHHHHHSHCSSCSTPLYDQGGPVEILPFLYLGSAYHASRKDMLDALGITALINVSANCPNHFEGHYQYKSIPVEDNHKADISSWFNEAIDFIDSIKNAGGRVFVHCQAGISRSATICLAYLMRTNRVKLDEAFEFVKQRRSIISPNFSFMGQLLQFESQVLAPHCSAEAGSPAMAVLDRGTSTTTVFNFPVSIPVHSTNSALSYLQSPITTSPSC”, the protein production result is recorded as “failed”. Turning to “MGHHHHHHSHDDLEVGSIYRGKITRVEKYGVFVSLNSHVWGLMRGLFPDYKVGDELFVRVSQVKPYKGEVDMIPASIKGP”, the protein production entry is “not failed”. For “MGHHHHHHSHEELPPTTELEEGLRNGVYLAKLAKFFAPKMVSEKKIYDVEQTRYKKSGLHFRHTDNTVQWLRAMESIGLPKIFYPETTDVYDRKNIPRMIYCIHALSLYLFKLGIAPQIQDLLGKVDFTEEEISNMRKELEKYGIQMPSFSKIGGILANELS”, the protein production entry is “failed”. For “MGHHHHHHSHELLVVGSRPELGRWEPRGAVRLRPAGTAAGDGALALQEPGLWLGEVELAAEEAAQDGAEPGRVDTFWYKFLKREPGGELSWEGNGPHHDRCCTYNENNLVDGVYCLPIGHWIEATGHTNEMKHTTDFYFNIAGHQAMHYSRILPNIWLGSCPRQVEHVTIKLKHELGITAVMNFQTEWDIVQNSSGCNRYPEPMTPDTMIKLYREEGLAYIWMPTPDMSTEGRVQMLPQAVCLLHALLEKGHIVYVHCNAGVGRSTAAVCGWLQYVMGWNLRKVQYFLMAKRPAVYI”, the protein production result was “failed”. Consider “MGHHHHHHSHLCTNFFIFTGGPGSGKTAVLNELNTWGYLTVSEVARSIIQKQQADGGDAIHTGNRKAFRDLMLEQSIADYCKMQSEEKIVFFDRGIPDLYGYSKAFCGEASKEVNEAVGRFRYNKTVFIFPPWPEIYENDDERQQDYQEALQTYYAVKEGYFDCGYVLLEVPKCPIKDRANFIFQMISKNG”, for which the protein production entry is on record as “not failed”. For “MGHHHHHHSHMAAPEAEVLSSAAVPDLEWYEKSEETHASQIELLETSSTQEPLNASEAFCPRDCMVPVVFPGPVSQEGCCQFTCELLKHIMYQRQQLPLPYEQLKHFYRKPSPQAEEMLKKKPRATTEVSSRKCQQALAELESVLSHLEDFFARTLVPRVLILLGGNALSPKEFYELDLSLLAPYSVDQSLSTAACLRRLFRAIFMADAFSELQAPPLMGTVVMAQGHRNCGEDWFRPKLNYRVPSRGHKLTVTLSCGRPSIRTTAWEDYIWFQAPVTFKGFRE”, the protein production entry was “failed”. For “MGHHHHHHSHMASPSKAVIVPGNGGGDVTTHGWYGWVKKELEKIPGFQCLAKNMPDPITARESIWLPFMETELHCDEKTIIIGHSSGAIAAMRYAETHRVYAIVLVSAYTSDLGDENERASGYFTRPWQWEKIKANCPYIVQFGSTDDPFLPWKEQQEVADRLETKLHKFTDCGHFQNTEFHELITVVKSLLKVPA” the value was “failed”.

“MGHHHHHHSHMASRVRVTILFATETGKSEALAWDLGALFSCAFNPKVVCMDKYRLSCLEEERLLLVVTSTFGNGDCPGNGEKLKKSLFMLKELNNKFRYAVFGLGSSMYPRFCAFAHDIDQKLSHLGASQLTPMGEGDELSGQEDAFRSWAVQTFKAACETF”: the protein production entry is on record as “failed”. For the sequence “MGHHHHHHSHMDDIFTQCREGNAVAVRLWLDNTENDLNQGDDHGFSPLHWACREGRSAVVEMLIMRGARINVMNRGDDTPLHLAASHGHRDIVQKLLQYKADINAVNEHGNVPLHYACFWGQDQVAEDLVANGALVSICNKYGEMPVDKAKAPLRELLRERAEK”, the protein production result is recorded as “not failed”. For “MGHHHHHHSHMGTKRPAMLDNEADGNKTMIELSDNENPWTIFLETVDPELAASGATLPKFDKDHDVMLFLKMYDPKTR” the value was “failed”; for “MGHHHHHHSHMKALLSIEMDMQVPFHDVDSMGITWHGNYLRYFEVARCKLLDELGYNYRQMRASNYAWPIIDVQIKYVKPSTFEQHITVRAELVEWENRLKINYQIRDTATGERITKGYTIQAAVDMTSQEMCFVTPEVFRSKIAPLLAKVDNE”, “not failed”; for “MGHHHHHHSHMNLERLRKRVRQYLDQQQYQSALFWADKVASLSREEPQDIYWLAQCLYLTAQYHRAAHALRSRKLDKLYEACRYLAARCHYAAKEHQQALDVLDMEEPINKRLFEKYLKDESGFKDPSSDW”, “failed”. For “MGHHHHHHSHMPVTEKDLAEDAPWKKIQQNTFTRWCNEHLKCVNKRIGNLQTDLSDGLRLIALLEVLSQKRMYRKYHQRPTFRQMQLENVSVALEFLDRESIKLVSIDSKAIVDGNLKLILGLVWTLILHYSISMPVWEDEGDDDAKKQTPKQRLLGWIQNKIPYLPITNFNQNWQDGKALGALVDSCAPGLCPDWESWDPQKPVDNAREAMQQADDWLGVPQVITPEEIIHPDVDEHSVMTYLSQFPKAKLKPGAPLKPKL” the value was “not failed”; for “MGHHHHHHSHMRPELEDSTLRYLQDLLAWVEENQHRVDGAEWGVDLPSVEAQLGSHRGLHQSIEEFRAKIERARSDEGQLSPATRGAY”, “failed”; for “MGHHHHHHSHMRTISFFNNKGGVGKTTLSTNVAHYFALQGKRVLYVDCDPQCNATQLMLTEEQTESIYLDGLNDEVAERNSLAKTVYAIFVPLREGESQIAAEITPMRSERFGVDVLPGHPALSQIEDLMSDSWQSALGRQTGPFRRIHWAGQLAHAMERDDRYDVIFFDVGPSLGPFNRTVLLGCDAFVTPTATDLFSFHAFGNLARWFDAWVTQYAEIHEGNMAEWKKYS”, “failed”. For “MGHHHHHHSHMTKREYDQCRIQVRLPDGTSLTQTFRAREQLAAVRLYVELHRGEELGGGQDPVQLLSGFPRRAFSEADMERPLQELGLVPSAVLIVAKKCPS”, the protein production entry is “failed”.

Consider “MGHHHHHHSHMTLEEFSAGEQKTERMDKVGDALEEVLSKALSQRTITVGVYEAAKLLNVDPDNVVLCLLAADEDDDRDVALQIHFTLIQAFCCENDINILRVSNPGRLAELLLLETDAGPAASEGAEQPPDLHCVLVTNPHSSQWKDPALSQLICFCRESRYMDQWVPVINLPER”, for which the protein production entry is given as “failed”. As to “MGHHHHHHSHMTNTVDSLFDTGLERYKAGEPAADLIPVFKEVCDRAPKASAAWICLAWLYLLEDKPNLALKAAQKAVKINPQDPQARVNLAVAMLETGQKGLRQHIDITQQLMLVNPDWRDEIQNSIADGLSRKPDWQSLAKVKGWLFNE”, the protein production result is listed as “not failed”.

Turning to “MGHHHHHHSHMYRYFTPKIVKRALNIWPPFWGAGISIENISSDFQEVSVILKDRFWNRNANRTQYGGSIFSMTDPVFSLMLMGILRDEYYVWDKQSEIDFISPGTTDLHARFVISDEQLAEIKQETKEGEKHFPQFEVYIYDKKGKVVARVNRTLYVRKKPEFR”, the protein production entry is “not failed”. For “MGHHHHHHSHPPRDLDSKACISIGNQNFEVKADDLEPIMELGRGAYGVVEKMRHVPSGQIMAVKRIRATVNSQEQKRLLMDLDISMRTVDCPFTVTFYGALFREGDVWICMELMDTSLDKFYKQVIDKGQTIPEDILGKIAVSIVKALEHLHSKLSVIHRDVKPSNVLINALGQVKMCDFGISGYLVDSVAKTIDAGCKPYMAPERINPELNQKGYSVKSDIWSLGITMIELAILRFPYDSWGTPFQQLKQVVEEPSPQLPADKFSAEFVDFTSQCLKKNSKERPTYPELMQHPFFTLHESKGTDVASFVKLILGD”, the protein production result was “not failed”.

As to “MGHHHHHHSHSIKPSTNLVFAKVLEKTRHPNANHLNLVKVKANQKVYEIVCGANNFSVHNWVVLAKLNAELANGLKITPRELRGYVSNGMLCAYSEINPQATSFLTSTDLDGILVLDDNYDHYKTPNQIFNLDDVILDLSIPSNRNDLNGYFWIAKELCAYFDFEYVVDATINHRPHKEIIDVRI”, the protein production entry was “failed”. Regarding “MGHHHHHHSHSVGMDTFIHRIDSTEVIYQPRRKRAKLIGKYLMGDLLGEGSYGKVKEVLDSETLCRRAVKILKKKKLRRIPNGEANVKKEIQLLRRLRHKNVIQLVDVLYNEEKQKMYMVMEYCVCGMQEMLDSVPEKRFPVCQAHGYFCQLIDGLEYLHSQGIVHKDIKPG”, the protein production result is “failed”.
